Measurements: patent US20240101663A1 (BIOTROY THERAPEUTICS, published 2024)

T1: CCDC112 on HCT116 tumor cells (including HCT116 cells stably overexpressing CCDC112) (human, UniProt Q8NEF3 1-446)
T1 construct: also called CCDC112 on the surface of tumor cells; HCT116-CCDC112
T1 sequence: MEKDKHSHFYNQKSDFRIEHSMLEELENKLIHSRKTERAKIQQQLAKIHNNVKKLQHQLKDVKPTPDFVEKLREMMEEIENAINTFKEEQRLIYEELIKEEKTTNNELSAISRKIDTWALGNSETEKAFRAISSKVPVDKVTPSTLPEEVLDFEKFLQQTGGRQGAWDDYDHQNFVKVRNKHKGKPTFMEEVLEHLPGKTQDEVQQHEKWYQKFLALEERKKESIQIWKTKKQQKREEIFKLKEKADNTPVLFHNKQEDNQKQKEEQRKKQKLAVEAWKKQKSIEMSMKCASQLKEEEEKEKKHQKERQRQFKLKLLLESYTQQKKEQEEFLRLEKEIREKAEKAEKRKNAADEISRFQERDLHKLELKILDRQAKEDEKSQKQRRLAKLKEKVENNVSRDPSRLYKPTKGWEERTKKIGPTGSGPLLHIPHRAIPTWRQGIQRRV

T2: CD30 extracellular region protein fragment labeled with hFc (UniProt P28908 19-385)
T2 construct: extracellular domain; Bought from ACRO Biosystems or Sino Biological; not shown: human Fc label (hFc)
T2 sequence (looked up): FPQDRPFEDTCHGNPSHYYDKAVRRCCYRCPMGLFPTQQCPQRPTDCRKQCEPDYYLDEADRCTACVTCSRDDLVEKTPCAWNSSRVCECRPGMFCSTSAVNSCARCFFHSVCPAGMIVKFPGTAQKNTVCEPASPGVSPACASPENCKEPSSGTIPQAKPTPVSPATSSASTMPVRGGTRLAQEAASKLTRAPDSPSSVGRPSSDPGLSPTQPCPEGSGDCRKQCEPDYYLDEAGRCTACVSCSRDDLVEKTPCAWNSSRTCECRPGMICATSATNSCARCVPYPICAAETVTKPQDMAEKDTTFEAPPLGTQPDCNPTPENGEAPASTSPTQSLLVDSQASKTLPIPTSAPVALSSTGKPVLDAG

B1: monoclonal antibody S-78-02 (antibody, V domains shown)
VH: QVQLQQSGPELVKPGASVKIPCKTSGYSFTDYNIDWVKQGLGESLEWIGDINPNYGGTMYNQKFKGKATLTVDKSSNTAYMELRSLTSEDTAVYYCAHDEFIYWGQGTLVTVSA
VL: DIQMNQSPSSMFASLGERVTITCRASQDINTYLSWIQRKPGKSPKTLIYRANRLVDGVPSRFSGSGSGQDYSLTISSLEYEDMGIYYCLQYDEFPHTFGGGTKLEIK
notes: Mouse hybridoma monoclonal antibody raised against CCDC112 protein and detected with an anti-mouse secondary antibody; also called CCDC112 antibody; CCDC112 monoclonal antibody
B2: CCDC112 recombinant protein (coiled-coil domain-containing protein 112) (ligand)
chain: T1 sequence
notes: also called CCDC112 protein; full-length CCDC112 protein

Legend:
[1] = target: B2; assay: ELISA, coated full-length CCDC112 protein, antibody titrated; table gives no unit, unit from the x axis Ab(nM)
[2] = target: B2; assay: bio-layer interferometry (ProbeLife Gator), antibody (200 nM) immobilized, antigen 15 nM to 1.875 nM
Procedure: The dissociation constant (KD) of the antibody of the invention binding to human CCDC112 was determined using bio-layer interferometry on ProbeLife Gator according to conventional procedures.

[3] = target: T1, CCDC112 on HCT116 tumor cells …; assay: flow cytometry on HCT116 cells overexpressing CCDC112; table gives no unit, unit from the x axis 'Abs conc. nM'
Procedure: Further, the specific binding of the CCDC112 antibody to the antigen was verified by flow cytometry. The HCT116 cell line overexpressing CCDC112 was constructed by stable transfection of liposome, and the cells and the CCDC112 antibody were co-incubated, the unbound antibody was washed away, and then the anti-mouse secondary antibody (FITC modified) was used for flow cytometry and the percentage of cells that stain positive was analyzed.

[4] = target: T3, LTBR-hFc (LTBR extracellular region protein fragment labeled with hFc) (UniProt P36941 31-227); assay: ELISA at pH 6, coated CCDC112 gradient, LTBR-hFc 0.5 µg/mL; table gives no unit, unit from the x axis; target from the plot title (legend names CD30)
T3 construct: extracellular domain; Bought from ACRO Biosystems or Sino Biological; also called lymphotoxin-beta receptor; TNFRSF3
Procedure: (§1) Specifically, a special plate for ELISA (costar, ME, USA) was used. Firstly, different concentrations of CCDC112 recombinant proteins were dissolved in 100 μL of ELISA coating solution (Solarbio, Beijing, China) to coat the plate, and the negative control was coated with 100 μL of coating solution without protein. The plate was coated overnight at 4° C. After washing with PBST, 100 μL of 5% BSA dissolved in PBS (VWR, PA, USA) was used for blocking in the incubator at 37° C. for 90 min. […] The above-mentioned receptor protein was labeled with hFc (P-Fc) and binding was carried out in the incubator at 37° C. for 60 min. After washing with PBST, a specific anti-human Fc fragment antibody (Abcam, MA, USA) diluted in PBS was used for incubation and binding at 37° C. for 30 min. After washing with PBST, chromogenic solution (Sangon, Shanghai, China) was added at 100 μL per well for color development and reacted in an incubator for 5-30 min, and then 50 μL of stop solution (Sangon, Shanghai, China) was added, and chromogenic reading was then carried out under a microplate reader (Thermo Fisher, MA, USA) at 450 nm.

[5] = target: T2, CD30 extracellular region protein …; assay: ELISA at pH 6.5, coated CCDC112 gradient, CD30-hFc 0.5 µg/mL; table gives no unit, unit from the x axis; target from the plot title (legend names LTBR)
Procedure: as §1

[6] = target: T2, CD30 extracellular region protein …; assay: ELISA at pH 6, coated CCDC112 gradient, CD30-hFc 0.5 µg/mL; table gives no unit, unit from the x axis; target from the plot title (legend names LTBR)
Procedure: as §1

[7] = target: T3, LTBR-hFc (LTBR extracellular region …); assay: ELISA at pH 5.5, coated CCDC112 gradient, LTBR-hFc 0.5 µg/mL; table gives no unit, unit from the x axis; target from the plot title (legend names CD30)
Procedure: as §1

[8] = target: T2, CD30 extracellular region protein …; assay: ELISA at pH 5.5, coated CCDC112 gradient, CD30-hFc 0.5 µg/mL; table gives no unit, unit from the x axis; target from the plot title (legend names LTBR)
Procedure: as §1

[9] = target: T3, LTBR-hFc (LTBR extracellular region …); assay: ELISA at pH 7.5, coated CCDC112 gradient, LTBR-hFc 0.5 µg/mL; ambiguous fit far outside the range shown, curve nearly flat; table gives no unit, unit from the x axis; target from the plot title (legend names CD30)
Procedure: as §1

[10] = target: T2, CD30 extracellular region protein …; assay: ELISA at pH 7, coated CCDC112 gradient, CD30-hFc 0.5 µg/mL; value lies above the highest concentration shown, curve has no plateau; table gives no unit, unit from the x axis; target from the plot title (legend names LTBR)
Procedure: as §1

[11] = target: T3, LTBR-hFc (LTBR extracellular region …); assay: ELISA at pH 6.5, coated CCDC112 gradient, LTBR-hFc 0.5 µg/mL; table gives no unit, unit from the x axis; target from the plot title (legend names CD30)
Procedure: as §1

T3 sequence (P36941 31-227): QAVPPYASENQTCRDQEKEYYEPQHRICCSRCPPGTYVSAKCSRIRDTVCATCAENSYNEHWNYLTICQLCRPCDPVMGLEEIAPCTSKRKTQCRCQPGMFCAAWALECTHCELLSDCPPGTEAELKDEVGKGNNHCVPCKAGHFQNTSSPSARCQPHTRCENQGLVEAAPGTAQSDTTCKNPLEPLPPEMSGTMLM

Row | EC50 [1] [nM] | Kd [2] [nM] | EC50 [3] [nM] | EC50 [4] [µg/mL] | EC50 [5] [µg/mL] | EC50 [6] [µg/mL] | EC50 [7] [µg/mL] | EC50 [8] [µg/mL] | EC50 [9] [µg/mL] | EC50 [10] [µg/mL] | EC50 [11] [µg/mL] | Binder
1 | 0.0644 | 0.468 | 0.98 | – | – | – | – | – | – | – | – | B1
2 | – | – | – | 1.26 | 4.61 | 1.91 | 0.922 | 2.11 | ~18100 | 16.1 | 1.94 | B2
